Laboratory results taken from patent US5091312A.

Substrate: CNCC(=O)O
Test: purified protein, by the assay type
Conditions: other: 37° C., pH 8.0

B1: sarcosine oxidase (E.C.1.5.3.1) from Streptomyces sp. KB210-8SY (Streptomyces sp. KB210-8SY) (protein)
chain: SPTYDVIVIGLGGMGSAAAHHLSARGARVLGLEKFGPVHNRGSSHGGSRITRQSYFEDPAYVPLLLRAYELYEELERATGRNVATLCGGVMAGPPDSRTVSGSLRSATEWDLAHEMLDAKEIRRRFPTLAPDDDEVALFEAKAGLLRPENMVAAHLQLATRQGAELRFEEPVLRWEPYRDGVRVHTGENTYTAGQLVICPGAWAPQLLADIGVPITVERQIMYWFQPKGGTGPFVPERHPVYIWEDADGVQVYGFPAIDGPEKGAKVAFFRKGQHTTPETIDRTVHAHEVRAMADHMSALIPDLPGTFLKAATCMYSNTPDEHFVIARHPAHPESVTVACGFSGHGFKFVPVVGEILADLALTGATAHPIGLFDPARLTAPAARGVQP
With B1 the Km was 910 µM.
